Test results published in publication PMC5600342 (Biochemistry and Biophysics Reports, 2016).
Ends that are not written are not given here.

Columns and labels:
[1] = target: mouse P1+P2 (stoichiometric mixture containing equal amounts of protamines P1 and P2) (mouse); experiment: native gel or EMSA
[2] = target: T1, Mouse nucleoplasmin M.NPM2 (full murine NPM2) (mouse, UniProt Q80W85 1-207); experiment: cross-linking
T1 sequence: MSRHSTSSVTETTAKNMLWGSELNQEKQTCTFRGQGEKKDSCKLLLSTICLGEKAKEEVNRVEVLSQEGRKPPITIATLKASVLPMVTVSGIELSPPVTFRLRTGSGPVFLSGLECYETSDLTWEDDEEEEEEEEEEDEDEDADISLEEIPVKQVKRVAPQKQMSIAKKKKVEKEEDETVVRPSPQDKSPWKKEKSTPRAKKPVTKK

B1: Mouse nucleoplasmin M.NPM2 (full murine NPM2) (natural protein)
chain: MSRHSTSSVTETTAKNMLWGSELNQEKQTCTFRGQGEKKDSCKLLLSTICLGEKAKEEVNRVEVLSQEGRKPPITIATLKASVLPMVTVSGIELSPPVTFRLRTGSGPVFLSGLECYETSDLTWEDDEEEEEEEEEEDEDEDADISLEEIPVKQVKRVAPQKQMSIAKKKKVEKEEDETVVRPSPQDKSPWKKEKSTPRAKKPVTKK
With B1 the stoichiometry N [1] was 3 P1+P2:M.NPM2.

B2: Mouse protamine P1 (natural protein)
chain: MARYRC(pyridylethyl)C(pyridylethyl)RSKSRSRC(pyridylethyl)RRRRRRC(pyridylethyl)RRRRRRC(pyridylethyl)C(pyridylethyl)RRRRRRC(pyridylethyl)C(pyridylethyl)RRRRSYTIRC(pyridylethyl)KKY
B2: binds [2].
